Data reported in the nanobody polyreactivity screen of Harvey et al. (2022).

Experiment: yeast display, Sf9 membrane polyspecificity reagent, FACS + sequencing; frameworks hold sequencing errors
Outline: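 Synthetic nanobody libraries on Saccharomyces cerevisiae BJ5465 were galactose-induced for 36–48 hours, stained 1 hour at 4 °C with 10% biotinylated, detergent-solubilized Sf9 membrane reagent and enriched on streptavidin microbeads. FACS then separated cells into low and high (top ~1%) gates by anti-HA (expression) and streptavidin (reagent binding) fluorescence. Genes were colony-PCR amplified, MiSeq 2 × 250 sequenced and CDR-length filtered. A clone's polyreactivity label is that of its gate of origin.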

Row | Sequence | polyreactivity (PSR sort gate)
1 | QVQLVESGGGLVQAGGSLRLTCAASGSIFWWYGVGWYRQAPGKERELVADITSGGGTYYADSVKGRFTISRDNAKNTVYLQMNSLKPEDTAVYYCAADDRAYRFDYYFDYWGQGTQVTVSS | low polyreactivity
2 | QVQLVESGGGLVQAGGSLRLSCAASGITFYVYALGWYRQAPGKARALVAANNYDSGSTYYADSEKGRFTISRDNAKNTVYIQKNSLKPEDTAGYYCATDGVNPFYAYDYWGQGTQVTVSS | low polyreactivity
3 | QVQLVESGGGLVQAGGSLRLSCAASGSIFYVYAMGWSRQAPGKERELVASITRRRTNYADSVKGRFTISRDTAKNTVYLQMNSLKPEDTAVYYCAATTYVRQYATYDYWGQGTQVTVSS | high polyreactivity
4 | QVQLVESGGGLVQAGGSLRISCAASGSTIGVNAMGLYRQAPGKEMELVAAISVSGGRTYYADSVKGRFTISRDYAKNTVYLQMNSLKPEDTAVYYCAATTYIWPYDYWGQGTQVNVSS | low polyreactivity
5 | QVQLVESGGGLVQAGGSLRLSCAASGFTFYGYAMGWYRQAPGKERELVAGITSSGGSTHYADSVKGRFTISRDNAKNTVYLQMNSLKPEDTAVYYCAKVWSFPSNYRAYYYWGQGTQVTVSS | high polyreactivity
6 | QFQLVESGGGLVQAGASLRLSCAASGNIFPAYAMGWYRQAPGKERELVATISRRGGGTYYADSVKGRFTISRDNAKNTVYLQMNSLKQEDTAVYYCNVAGWTSAYDYWGQGTQVTVSS | low polyreactivity
7 | QVQLVESGGGLVQAGGSLRLICAASGSTFRYYAMVLYRQAPGKERELVAAISGTGSTYYADSVKGRFTISRDNAKNTVYLQMNSLKPEDTAVYYCAAYPRASQRYNYWGQGTQVTVSS | high polyreactivity
8 | QVQLVESGGGLVQAGGSLRLSCAASGRTLHYYAMGWYRQAPGKERELVAAISARVGRTYYADSVKGRFTISRDNAKNTVYLQMNSLKPEDTEVYYCAAAGYITRYDRYDYWGQGTQVTVSS | high polyreactivity
9 | QVQLVESSGGLVQAGGSLRLSCAASGRTFSRNAMGWYRQAPGKERELVAAITYSGGTTYYADSVKGRFTISRDNAKNTVYLQMNSLKPEDTAVYYCATPSRKSGVGYPSYNYWGQGTQVTVSS | high polyreactivity
10 | QVQLVESGGGLVQAGGSLRLSCAASGSIFVGYAMGWYRQAPGKERELVAAISKSGGSTYYADSVKGRYTISRDNAKNTVYLQMNSLKPEDTAVYYCAAYPVRLVYSQHRYQYDYWGQGTQVTVSS | high polyreactivity
11 | QVQLVESGGGLVQAGGTLRISCAASGRTFRKYAMGWYRQAPGKERELVAAISWSGGSTYYANSVKGRFTISRDNAKNTVYLQMNSLKPEDTAVYYCAAVPVHTGSLYWGFTTGYDYWGQGTQVTVSS | low polyreactivity
12 | QVQLVESGGGLVQEGGSLRLSCAASGSTFIDYAMGWYRQAPGKERELVAAITNGGNTKYADSVKGRFTISRDNAKNTVYLQMHSLKPEETAVYYGAREPSIFTPSYDYWGQGTQVTVSS | low polyreactivity
13 | QVQLVESGGGLDQAGGSLRLSCAASGSIFAPNAMGWYRQAPGKERELVAAITSSGGRTYYADSVKGRFTISRDNAKNTVYLQMNSLKPEDTAVYYCNACYYVRRDYDYWGQGTQVTVSS | low polyreactivity
14 | QVQLVESGGGLVQAGGSLRLSCAASGRIFSYKAMGWYRQAPGKERELVAAISFSTTSTYYADSVKGRFTISRDNAKNTVYLQMYSLKPEDTAVYYCNTPGLPIDSEYDYWGQGTQVTVSS | low polyreactivity
15 | QVHLVESGGGLVQAGRSLRISCAASGRTFYGYAMGWYRQAPGKERELVAAITNGGRTYYADSVKGRFTISRDNAKNTVYLQMNSLKPEDTAVYYCAAGTGRGRSTLGSYYWGQCTQVTVSS | high polyreactivity
16 | QFQLVESGGGLVQAGGSLRLSCAASGLILQNYVMGWYRQAPGKERELVAAITRSGGGTYYADSVKGRFTISRDNAKNTVYLQMNSLKPEDTAVYYCAAQRQYGKFDYWGQGTQVTVSS | high polyreactivity
17 | QHQLGESGGGLVQAGGRLRLSCAASGRIFHVSAMGWYREAPGKERELVAAISSGDRTYYADSGKGRFIISRDNAKNSVYLQLNSLKPEDTAVYYCWRYPAAESNYWGQGTQVTVSS | low polyreactivity
18 | QVQLVESGGGLVQAGGSLRLSCAASAFILYRYAMGWYRQAPGKERELVAAISRTGGSTYYADSVKGRFTISRDNAKNTVYLQMNSLKPEDTAVYYCNARSSYGLSYRQYGYWGQGTQVTVSS | high polyreactivity
19 | QVQLVESGGGLVQAGGSLRLSCAASGRIFTKYAMGWYRQAPGKERELVAAISGSGGNTYYADSVKGRFTISRDNAKNTVYLQMNSLKPEDTAVYYCAVESWRYVGFGYWGQGSQVTVSS | high polyreactivity
20 | QVQLVESGGGLVQAGGSLRLSCAASGRTFRRYAMGWYRQAPGKERELVAAISRGANTNYADSVKGRFTISRDNAKNTVYLQMNSLKPEDTAVYYCIAKQAGYYFAFGYWGQGTQVTVSS | high polyreactivity
21 | KVLLVESGGGLVQAGGSLRLSCAASGSIFHGNAMGWYRQAPGKERELVATISSGGSTYYADSVKGLFTISRDNAKNTVDLQMNSLKPEDTAVYYCAAERFWPYKSYYWGQGTQVTVSS | low polyreactivity
22 | QVQLVESGVGLVQAGGSLRLSSAASGSIFLSYDMGWYRQAPGKERELVAAITQSGGSTYYADSVKGRFTISRDNAKNTVYLQMNSLKPEDTAVYYCAADYGYFPQETYPTYGYYYWGQGTQVTVSS | low polyreactivity

Row | Sequence | polyreactivity (PSR sort gate)
23 | QVQLVESGRCLVQAGGSLRLSCAASGITFDGNAMGWYRQEPGKERELVAGITRIGGGTYYADSVKGRFTISRDNAKNTVYLQMNSLKPEDTAVYYSAKDALVPNFTKDIFEYDYWGQVTQVTVSS | low polyreactivity
24 | QVQHVETGRDLVQAGGSLRLSCAAAGLIFVSYAMGGYRQAPGKERELVASITDSDSSTYYADSVKGRFTISRDNAKNTVYLQMNSLKPEDTAVYYCATGGRTEIWYPTLDYWGQGTQVTVSS | low polyreactivity
25 | QVQLVESGGGLVQAGGSLRLSCAASGFTLGSNVMGWYRQAPGKERELVAGISQSGGRTFYADSVKGRFTISRDNAKNTVYLQMNSLKPEDTAVYYCAARRYAVEGSKNYYWGQGTQVTVSS | low polyreactivity
26 | QVQLVESGGGLVQAGGSLRLSCAASGRTFVVYAMGWYRQAPGKERELVAVISFTGDSTFYADSVKGRFTISRDNGKNTVYLQMNSLKPEDTAVYYCAADFRRVFSKYSYYLYFDFDYWGQGTLVTVSS | low polyreactivity
27 | QVQLQESGGGLVQAGGCLRLSCAASGSIFTYAVMGWYRQAHGKEHELVATIDTGSSTYYADSVKGRITISRDNAKNTLYLQMNSLKPEDTAVYYCAVNTYCRVRYRYWGQGTQVTVSS | high polyreactivity
28 | QVQLVESGGGLVQAGGSLRLSCAASGIIFYDYAMGGYREAPGKERELVATITRGGGTKYADSVKGRFTISRDNAKNTVYLQMNSLKPEDTAVYYCAADSHGVYEGDYCGQGTQVTVSS | low polyreactivity
29 | QVQLVESGGGLVQAGGSLRLSCAASGIFTNNAMGWYRQAPGKERELVAAITIRGGSTYYADSVKGRFTISRDNAKNTVYLQMNSLKPEDTAVYYCAARGLGYTDLRSVHMYYWGQGTQVTVSS | high polyreactivity
30 | QVQLVESGGGLVQAGGSLRLSCAASGYTFIVNAIGWYRQAPGKERELVAGISYRGGRTFYADSVKGRFTISRDNAKNTVYLQMNSLKPEDTAVYYCAARKTGIPFYNYDYWGQGTQVTVSS | low polyreactivity
31 | QVQLVESGGGLVQAGGSLRLSCAASGRIFPIYAMGWYRQAPGKERELVATIRYSSGTTYYADSVKGRFTISRDNAKNTVYLQMNSLKPEDTAVYYCAADSQWAYISEYDYWGQGTQVTVSS | low polyreactivity
32 | QVQLVESGGGLVQAGGSLRLSCAASGFIFFRNAMGWYRQAPGKERELVAAISSNGGRTYYADSVKGRFTISRDNAKNTVYLQMNSLTPEDTAVYYCAAANPGSEYDYWGQGTQVNVSS | high polyreactivity
33 | QVQLVESGGGLVQAGGSLRLSCPASGITFKGYTMGWYRQAPGKERELVATISRGGRTYADSVKGRFTISRDNAKKTFYLQMNSLKPEDTSVYYCAADKYWAQNDYWGQGTQVTVSS | low polyreactivity
34 | QGQLVESGGGLVQAGGSLRLSCAASGFIFYKNAMGWYRQAPGKARELVAAITWSGGSTYYADSVKGRFTISRDNAKNTVYLQMNSLKPEDTAVYYCAAGVTWISWVWYDYWGQGTQVTVSS | low polyreactivity
35 | QVQLVESGGGLVQAGGSLRLSCAASGRTFSRNAKGWYRQAPGKERELVAAISWSGGSTYYADSVKGRFTISRDNAKNTVYLQMNSLKPEDTAVYYCAKVLGRTYNYWGQGTQVTVSS | high polyreactivity
36 | QVQLEESGGVLVQAGGSHRLRCAASGRTIGWYAMGWYRQAPRKERELVAAIRSSTGSTYYADSVKGRFTISRDNAKNTVFLQMNSLKPEDTAVYDCAKRRADYSPRYGYWGQGTQVTVSS | high polyreactivity
37 | QDQLVESVGGLVQAGGSLRLSCAASGLTISQNAMGWYRQAPGKERELVAAITRSGSTTHYADSVKWRFTISRDNAKNTVYLQMNSLKPEDTAVYYCAAAHSYYGHYYYWGQGTQVTVSS | high polyreactivity
38 | QVQLVESGGGLVQAAGSLRLSCAASGYTLAGNAMGWYRQSPGIERELVAAIDWNGGSTTYADSVKGRFTISRDNAKNTVYLQMNSLKPEDSAVYYCNVDLGVNGDYWGQGWQVTVSS | low polyreactivity
39 | QVQLVESGGGLVQAGGSLRLSCAASGRTFGAYTMRWYRQAPGTERELVAAINRSGGDTYYADSVKGRFTISRDTAKNTVYLQMNSLKPEDNAVYYCNAEPRYGTYDYWGQGTQVTVSS | low polyreactivity
40 | QVHLVESGGGLVQAGGSLRLSCAASGFTFGHYAMGWYRQAPGKERELVAAITYRGGSTYYADSVKGRFTISRDNAKNTVYLQMNSLKPEDTAVYYCNADRRYKVYFAQNGHYDYWGQGTQVTVSS | high polyreactivity
41 | QVQLVESGGGLVQAGGSLRLSCAASGSIFGTNAMGWYRQAPGKERELVAVISDGGSTYYADSVKGRFTISRDNAKNTVYLQMNSLKPEDTAVYYCNTPLESPFYSRFGTTESDHWGQGTQVTVSS | low polyreactivity
42 | QVQLVESGGALDQARGSLSLSCAASGFLFGQNAMVWSRQAPGKLREFVATNNRSGGSTYYADSVKGRFTISRDNAKNTVYVQMNSLKPEDTAVYYCAKGPRMSSSLRYSAYWIMNYWGQGTQVTVSS | high polyreactivity
43 | QDQLVESRGGLVQAGGSLRLSCAASGSIFTVNAMGWYRQAPRKERELVASITWRSGSTYYPDSVKGRFTISRDNAKNSVYLQMNRLKPEDTAFYYCNADSDYPYYPGNFDYWGQGTQVTVSS | low polyreactivity
